Ends that are not written are not given here. * marks the point of attachment. Biotin = O=C1N[C@H]2[C@H](CS[C@H]2CCCCC(=O)*)N1
T1: GST-DVL1 PDZ domain fusion protein (human, UniProt O14640 247-339)
T1 construct: also called human dishevelled segment polarity protein homolog; not shown: glutathione S-transferase encoded by vector pGEX-3X (Pharmacia)
T1 sequence: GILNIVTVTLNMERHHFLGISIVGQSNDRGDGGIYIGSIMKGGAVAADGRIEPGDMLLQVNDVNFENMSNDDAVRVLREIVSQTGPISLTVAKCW

T2: K559 PDZ-GST fusion protein (Homo sapiens (Human), UniProt Q9Y6V0 4489-4593)
T2 construct: Order of GST and PDZ part and limits not seen in the excerpts
T2 sequence: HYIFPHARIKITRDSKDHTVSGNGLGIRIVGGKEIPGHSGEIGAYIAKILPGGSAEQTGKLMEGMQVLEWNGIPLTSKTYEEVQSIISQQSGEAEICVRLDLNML

T3: GST-CASK PDZ domain fusion protein (Homo sapiens, UniProt O14936 486-575)
T3 construct: also called Homo sapiens CASK protein
T3 sequence: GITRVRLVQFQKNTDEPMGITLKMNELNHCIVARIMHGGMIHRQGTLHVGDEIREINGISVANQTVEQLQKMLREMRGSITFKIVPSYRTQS

T4: KIAA0807 (PDZ domain)-GST fusion protein (human, UniProt Q6P0Q8 1104-1192)
T4 construct: also called K807; KIAA807; not shown: glutathione S-transferase encoded by vector pGEX-3X (Pharmacia)
T4 sequence: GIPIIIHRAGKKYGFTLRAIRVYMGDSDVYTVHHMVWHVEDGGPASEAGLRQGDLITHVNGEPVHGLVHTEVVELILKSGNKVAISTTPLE

T5: TAX-IP33 PDZ-GST fusion protein (Homo sapiens (Human), UniProt O14910 103-193)
T5 construct: Order of GST and PDZ part and limits not seen in the excerpts
T5 sequence: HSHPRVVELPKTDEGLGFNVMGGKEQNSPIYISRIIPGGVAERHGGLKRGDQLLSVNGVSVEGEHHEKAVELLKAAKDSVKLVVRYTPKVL

T6: GST-DLG5 (p-dlg) PDZ domain fusion protein (Human, UniProt Q8TDM6 1343-1583)
T6 construct: also called Human discs large protein p-dlg; not shown: glutathione S-transferase encoded by vector pGEX-3X (Pharmacia)
T6 sequence: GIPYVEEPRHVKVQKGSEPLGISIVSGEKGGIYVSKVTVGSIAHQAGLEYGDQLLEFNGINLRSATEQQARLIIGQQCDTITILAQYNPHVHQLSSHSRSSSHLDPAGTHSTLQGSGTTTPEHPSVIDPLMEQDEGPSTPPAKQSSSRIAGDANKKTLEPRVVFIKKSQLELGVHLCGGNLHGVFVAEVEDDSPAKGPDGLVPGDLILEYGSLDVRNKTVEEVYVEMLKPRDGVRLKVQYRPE

T7: GST-TAX-IP43 PDZ domain fusion protein (human, UniProt Q13884 109-180)
T7 construct: also called TAX43; not shown: glutathione S-transferase encoded by vector pGEX-3X (Pharmacia)
T7 sequence: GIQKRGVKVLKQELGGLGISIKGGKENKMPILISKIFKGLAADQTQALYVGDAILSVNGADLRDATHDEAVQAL

T8: GST-PDZK1 fusion protein (PDZ domains 2-4) (Homo sapiens, UniProt Q5T2W1 134-457)
T8 construct: not shown: glutathione S-transferase encoded by vector pGEX-3X (Pharmacia)
T8 sequence: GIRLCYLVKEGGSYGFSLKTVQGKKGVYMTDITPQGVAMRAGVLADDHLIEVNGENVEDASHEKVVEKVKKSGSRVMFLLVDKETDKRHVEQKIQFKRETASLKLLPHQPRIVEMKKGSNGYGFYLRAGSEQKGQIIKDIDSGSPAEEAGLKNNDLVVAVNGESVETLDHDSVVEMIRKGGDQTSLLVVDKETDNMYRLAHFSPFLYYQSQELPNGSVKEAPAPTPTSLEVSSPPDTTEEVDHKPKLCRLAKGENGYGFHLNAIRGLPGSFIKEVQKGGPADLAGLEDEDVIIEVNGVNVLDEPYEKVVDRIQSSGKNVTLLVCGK

T9: X11β PDZ-GST fusion protein (Rattus norvegicus (Rat), UniProt O35431 560-745)
T9 construct: Order of GST and PDZ part and limits not seen in the excerpts
T9 chain: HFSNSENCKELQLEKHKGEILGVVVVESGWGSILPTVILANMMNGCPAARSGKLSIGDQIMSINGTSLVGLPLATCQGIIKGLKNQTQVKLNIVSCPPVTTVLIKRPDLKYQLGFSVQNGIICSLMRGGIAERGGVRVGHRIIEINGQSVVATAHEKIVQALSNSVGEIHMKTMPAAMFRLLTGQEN

T10: GST-mouse syntenin fusion protein (Mus musculus, UniProt O08992 108-286)
T10 construct: also called Mus musculus Syntenin; not shown: glutathione S-transferase encoded by vector pGEX-3X (Pharmacia)
T10 chain: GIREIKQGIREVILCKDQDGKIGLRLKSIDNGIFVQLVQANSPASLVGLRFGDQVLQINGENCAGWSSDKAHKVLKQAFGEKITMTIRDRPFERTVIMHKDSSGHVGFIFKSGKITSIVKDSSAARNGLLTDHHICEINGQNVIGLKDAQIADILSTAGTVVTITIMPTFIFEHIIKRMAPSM

T11: TAX-IP2L PDZ-GST fusion protein (Homo sapiens (Human), UniProt Q8TF64 107-197)
T11 construct: Order of GST and PDZ part and limits not seen in the excerpts
T11 sequence: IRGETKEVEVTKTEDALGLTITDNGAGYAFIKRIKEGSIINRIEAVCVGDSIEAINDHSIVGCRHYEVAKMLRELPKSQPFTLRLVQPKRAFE

T12: MINT3 PDZ-GST fusion protein
T12 construct: Order of GST and PDZ part and limits not seen in the excerpts
T12 chain: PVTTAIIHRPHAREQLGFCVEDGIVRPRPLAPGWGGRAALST


Assays:
Test in all cases: A/G assays
[1] = biological target: T1, GST-DVL1 PDZ domain fusion protein
[2] = biological target: T2, K559 PDZ-GST fusion protein
[3] = biological target: T3, GST-CASK PDZ domain fusion protein
[4] = biological target: T4, KIAA0807 (PDZ domain)-GST fusion protein
[5] = biological target: T5, TAX-IP33 PDZ-GST fusion protein
[6] = biological target: T6, GST-DLG5 (p-dlg) PDZ domain fusion …
[7] = biological target: T13, K316 PDZ-GST fusion protein (Homo sapiens (Human), UniProt Q14CM0 72-159)
T13 construct: Order of GST and PDZ part and limits not seen in the excerpts
T13 sequence (Q14CM0 72-159 limits assumed): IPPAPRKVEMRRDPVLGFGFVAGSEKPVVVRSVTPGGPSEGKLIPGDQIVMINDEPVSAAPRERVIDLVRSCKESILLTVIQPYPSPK

[8] = biological target: T7, GST-TAX-IP43 PDZ domain fusion protein
[9] = biological target: T8, GST-PDZK1 fusion protein (PDZ domains …)
[10] = biological target: T9, X11β PDZ-GST fusion protein
[11] = biological target: T10, GST-mouse syntenin fusion protein
[12] = biological target: T11, TAX-IP2L PDZ-GST fusion protein
[13] = biological target: T12, MINT3 PDZ-GST fusion protein

| Binder | binding result [1] | binding result [2] | binding result [3] | binding result [4] | binding result [5] | binding result [6] | binding result [7] | binding result [8] | binding result [9] | binding result [10] | binding result [11] | binding result [12] | binding result [13] |
| --- | --- | --- | --- | --- | --- | --- | --- | --- | --- | --- | --- | --- | --- |
| Biotin-CAISGTSSDRGYGSPRYAEV (also called AA3L-V) [Clasp-4 C-terminal peptide AA3L, biotinylated] | no binding | no binding | no binding | no binding | no binding | no binding | no binding | no binding | no binding | no binding | no binding | no binding | no binding |
| Biotin-GTSDMKDLVGNIEQNEHSVI (Only the last four residues are seen in the excerpts) [Mannose receptor C-terminal peptide AA31L] | no binding | no binding | no binding | no binding | no binding | no binding | no binding | no binding | no binding | no binding | no binding | no binding | no binding |
| Biotin-ENLAPVTTFGKTNGYIA (also called CD148 (DEP-1)) [CD148 C-terminal peptide AA19L, biotinylated] | no binding | no binding | no binding | no binding | no binding | no binding | no binding | no binding | no binding | no binding | no binding | no binding | no binding |

Results, then the binder that gave them:

| binding result [1] | binding result [2] | binding result [3] | binding result [4] | binding result [5] | binding result [6] | binding result [7] | binding result [8] | binding result [9] | binding result [10] | binding result [11] | binding result [12] | binding result [13] | Binder |
| --- | --- | --- | --- | --- | --- | --- | --- | --- | --- | --- | --- | --- | --- |
| no binding | no binding | no binding | no binding | no binding | no binding | no binding | no binding | no binding | no binding | no binding | no binding | no binding | Biotin-ISKATPALPTVSISSSAEV (also called AA1L-R) [Clasp-1 C-terminal peptide AA1L, biotinylated] |
| no binding | no binding | no binding | no binding | no binding | no binding | no binding | no binding | no binding | no binding | no binding | no binding | no binding | Biotin-LNFPLLQGIRVHGMEALGSF (Only the last four residues are seen in the excerpts) [CD114 (G-CSFR) C-terminal peptide AA27L] |

Reference: patent US20050037969A1 (ARBOR VITA, published 2005)
